Publication PMC8427654

Biological target: T1, split luciferase wild-type (WT) Apaf-1 (apoptotic protease activating factor-1), O14727
T1 chain: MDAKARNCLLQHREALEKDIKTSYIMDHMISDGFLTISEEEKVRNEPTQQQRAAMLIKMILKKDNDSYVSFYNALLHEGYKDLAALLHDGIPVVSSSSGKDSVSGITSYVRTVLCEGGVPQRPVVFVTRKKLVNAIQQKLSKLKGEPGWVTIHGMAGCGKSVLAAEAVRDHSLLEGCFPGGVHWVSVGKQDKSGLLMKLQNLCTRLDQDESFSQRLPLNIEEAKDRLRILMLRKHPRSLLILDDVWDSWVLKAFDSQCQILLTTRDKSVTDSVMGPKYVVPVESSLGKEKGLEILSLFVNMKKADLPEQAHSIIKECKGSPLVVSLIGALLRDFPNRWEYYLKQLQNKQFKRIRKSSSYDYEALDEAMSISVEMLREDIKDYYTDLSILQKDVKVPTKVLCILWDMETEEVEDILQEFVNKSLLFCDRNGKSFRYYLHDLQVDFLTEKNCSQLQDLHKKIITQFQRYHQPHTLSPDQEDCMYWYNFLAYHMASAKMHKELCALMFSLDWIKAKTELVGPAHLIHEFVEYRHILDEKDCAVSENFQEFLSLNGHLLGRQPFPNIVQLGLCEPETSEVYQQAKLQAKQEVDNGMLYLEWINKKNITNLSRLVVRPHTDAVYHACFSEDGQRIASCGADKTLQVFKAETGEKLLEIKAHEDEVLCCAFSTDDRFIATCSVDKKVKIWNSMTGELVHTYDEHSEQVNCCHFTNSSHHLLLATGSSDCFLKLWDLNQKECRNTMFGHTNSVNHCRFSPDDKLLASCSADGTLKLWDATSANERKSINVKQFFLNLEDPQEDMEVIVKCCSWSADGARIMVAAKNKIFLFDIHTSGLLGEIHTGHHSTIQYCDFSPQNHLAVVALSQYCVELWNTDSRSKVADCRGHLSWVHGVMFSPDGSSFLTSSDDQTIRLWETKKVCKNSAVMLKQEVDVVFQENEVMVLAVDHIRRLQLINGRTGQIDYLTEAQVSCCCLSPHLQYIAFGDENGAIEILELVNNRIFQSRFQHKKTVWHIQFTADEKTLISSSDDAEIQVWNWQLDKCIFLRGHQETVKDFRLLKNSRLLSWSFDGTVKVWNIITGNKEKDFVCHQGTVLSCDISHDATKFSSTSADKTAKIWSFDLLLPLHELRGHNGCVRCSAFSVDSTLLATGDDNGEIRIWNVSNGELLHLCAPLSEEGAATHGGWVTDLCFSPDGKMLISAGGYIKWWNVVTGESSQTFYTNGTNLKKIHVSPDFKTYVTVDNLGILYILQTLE
Assay: split reporter
Conditions: remark: other sources report otherwise

luciferase activity, fold over pcDNA3 transfection control: 32 fold
B1: split luciferase wild-type (WT) Apaf-1 (apoptotic protease activating factor-1), O14727 1-1248 (natural protein)
chain: T1 chain
